Assay results taken from article PMC3763469 (Molecular cell, 2011).

Assays:
[1] = molecular target: FlAsH-Saci_1373 (ESCRT-III wH domain, residues 194-261) (S. acidocaldarius) (UniProt Q4J924); assay: fluorescence polarisation
[2] = molecular target: T1, GST fused to full length ESCRT-III (Saci_1373) (S. acidocaldarius, UniProt Q4J924 1-261); assay: pull-down
T1 sequence (looked up): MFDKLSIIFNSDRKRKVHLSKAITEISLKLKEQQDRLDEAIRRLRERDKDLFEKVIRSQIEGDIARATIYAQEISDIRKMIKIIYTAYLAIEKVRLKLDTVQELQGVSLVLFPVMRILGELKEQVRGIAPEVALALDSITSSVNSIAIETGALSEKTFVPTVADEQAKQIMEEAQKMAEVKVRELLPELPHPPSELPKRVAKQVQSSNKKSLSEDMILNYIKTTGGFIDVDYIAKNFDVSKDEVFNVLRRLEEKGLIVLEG

[3] = molecular target: T2, full length ESCRT-III (Saci_1373), purified recombinant (S. acidocaldarius, UniProt Q4J924 1-261); assay: co-sedimentation
T2 sequence (looked up): T1 sequence (looked up)

[4] = molecular target: T3, S. solfataricus ESCRT-III wH domain (His6-SSO0910, residues 210-259) (S. solfataricus, UniProt Q97ZJ6 210-259); assay: crystal structure
T3 chain (looked up): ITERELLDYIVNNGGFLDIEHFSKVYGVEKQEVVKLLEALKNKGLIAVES

With “GST-tagged CdvA residues 208-238 (from UniProt Q4J923 208-238) (domain or fragment)” the Kd [1] was 6 µM.

B1: CdvA (Saci_1374) residues 69-238 (domain or fragment, S. acidocaldarius, UniProt Q4J923 69-238, looked up)
chain: DWKTDSLKVLGQMEKIRKRQRALEELYSRQEIPKSTYEDMKRKLDSELLKIRDEHSRLKGRLKDRLNSIEDQVAQIDRAMIALKINYISGEIPELAYKNSMEILRLSRDSYALERDDIKKTLDKLDGLDKEVIELKPSASLNTSTEQSNKNEGNKSEVSVPIPVRVINTL
B1: binds [2]; binds [3].

SEIPLPIPVKVINTL (peptide, UniProt Q97ZJ5 251-265, looked up) [S. solfataricus CdvA E3B peptide (SSO0911, residues 251-265)]: binds [4].
